Test results as given in paper PMC13423800, “De novo design of potent CRISPR–Cas13 inhibitors” (Nature Chemical Biology, 2024).

T1: LbuCas13a (Leptotrichia buccalis, UniProt C7NBY4)
T1 sequence: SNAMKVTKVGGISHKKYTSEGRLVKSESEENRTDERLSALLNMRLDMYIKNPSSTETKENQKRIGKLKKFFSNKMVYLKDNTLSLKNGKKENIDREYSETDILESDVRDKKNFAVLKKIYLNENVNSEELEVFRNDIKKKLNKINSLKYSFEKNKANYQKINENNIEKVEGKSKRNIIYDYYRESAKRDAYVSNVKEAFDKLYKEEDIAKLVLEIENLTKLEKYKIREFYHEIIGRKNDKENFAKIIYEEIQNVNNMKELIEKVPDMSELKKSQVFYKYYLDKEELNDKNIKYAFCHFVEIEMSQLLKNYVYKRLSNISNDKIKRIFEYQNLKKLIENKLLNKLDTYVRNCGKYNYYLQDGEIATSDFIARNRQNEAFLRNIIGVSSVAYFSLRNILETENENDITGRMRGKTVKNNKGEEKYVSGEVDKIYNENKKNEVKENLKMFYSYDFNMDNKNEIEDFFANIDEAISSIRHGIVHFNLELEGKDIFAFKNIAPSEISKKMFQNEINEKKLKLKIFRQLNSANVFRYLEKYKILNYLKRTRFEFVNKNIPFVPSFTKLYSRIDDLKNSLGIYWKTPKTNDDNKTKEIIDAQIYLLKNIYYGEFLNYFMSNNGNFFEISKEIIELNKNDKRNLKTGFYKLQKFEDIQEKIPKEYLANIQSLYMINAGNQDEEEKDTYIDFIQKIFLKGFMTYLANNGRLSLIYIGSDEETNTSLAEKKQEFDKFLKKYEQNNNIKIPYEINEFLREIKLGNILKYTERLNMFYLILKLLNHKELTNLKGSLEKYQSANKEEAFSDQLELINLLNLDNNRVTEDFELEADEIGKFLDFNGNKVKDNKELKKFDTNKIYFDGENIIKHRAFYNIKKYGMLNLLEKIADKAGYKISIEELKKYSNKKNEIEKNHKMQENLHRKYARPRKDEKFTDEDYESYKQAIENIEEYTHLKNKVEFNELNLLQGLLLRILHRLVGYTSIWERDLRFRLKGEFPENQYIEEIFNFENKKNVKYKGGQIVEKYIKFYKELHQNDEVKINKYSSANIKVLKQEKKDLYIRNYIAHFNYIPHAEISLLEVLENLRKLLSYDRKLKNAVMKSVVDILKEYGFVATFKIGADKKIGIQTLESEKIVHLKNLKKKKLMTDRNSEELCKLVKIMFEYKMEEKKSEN

T2: Leptotrichia buccalis (Lbu) CRISPR–Cas13a (Leptotrichia buccalis, UniProt C7NBY4 1-1159)
T2 sequence: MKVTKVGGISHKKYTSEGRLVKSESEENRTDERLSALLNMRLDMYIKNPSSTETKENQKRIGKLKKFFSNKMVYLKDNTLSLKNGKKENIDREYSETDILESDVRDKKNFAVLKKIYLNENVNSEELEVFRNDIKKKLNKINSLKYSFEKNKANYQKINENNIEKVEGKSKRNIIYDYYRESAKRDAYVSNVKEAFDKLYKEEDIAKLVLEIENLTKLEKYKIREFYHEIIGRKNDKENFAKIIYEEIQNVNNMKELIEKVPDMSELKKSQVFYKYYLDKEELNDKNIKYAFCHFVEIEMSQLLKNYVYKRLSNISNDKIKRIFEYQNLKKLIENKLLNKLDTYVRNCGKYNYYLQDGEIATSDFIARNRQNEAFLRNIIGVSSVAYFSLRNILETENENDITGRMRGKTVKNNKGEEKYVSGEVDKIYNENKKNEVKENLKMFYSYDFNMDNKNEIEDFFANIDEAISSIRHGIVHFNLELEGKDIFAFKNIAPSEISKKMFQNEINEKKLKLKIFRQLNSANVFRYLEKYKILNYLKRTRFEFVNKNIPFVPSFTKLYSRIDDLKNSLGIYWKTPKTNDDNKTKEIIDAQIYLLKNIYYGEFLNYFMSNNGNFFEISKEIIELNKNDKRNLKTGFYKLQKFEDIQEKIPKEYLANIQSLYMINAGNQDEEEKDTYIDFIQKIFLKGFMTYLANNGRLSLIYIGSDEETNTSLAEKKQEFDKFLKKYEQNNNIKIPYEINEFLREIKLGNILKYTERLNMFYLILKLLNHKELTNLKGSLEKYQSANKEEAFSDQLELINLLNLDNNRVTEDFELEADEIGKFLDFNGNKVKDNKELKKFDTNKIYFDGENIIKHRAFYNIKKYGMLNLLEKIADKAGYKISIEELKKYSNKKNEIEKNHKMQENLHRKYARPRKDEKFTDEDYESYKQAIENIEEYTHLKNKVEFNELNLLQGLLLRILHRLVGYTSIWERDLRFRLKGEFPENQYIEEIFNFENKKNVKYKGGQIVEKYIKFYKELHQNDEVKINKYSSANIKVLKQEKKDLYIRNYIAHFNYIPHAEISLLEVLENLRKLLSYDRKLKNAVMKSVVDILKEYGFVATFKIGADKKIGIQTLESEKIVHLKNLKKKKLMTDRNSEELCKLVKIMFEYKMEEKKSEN

B1: FP crRNA / 5'-FAM aRNA (mixed)
RNA: UAGACCACCCCAAAAAUGAAGGGGACUAAAACUUUCUUUCUUUCCUUUUUCUGCCG
?: CCGGCAGAAAAAGGAAAGAAAGAAACC
modifications: first C of the aRNA is deoxyribose (C*)
B2: AIcrVIA2 (designed binder)
chain: MNEKKEKARKEMKEIAEKAIKEIKKDPEKALEIAVKAVEEIGEIANESGDYKSGEENAWKVAEEYAKVTGDDDTAYDLMLAGDMIIDGKDAEEGYEILKEL
B3: AIcrVIA3 (designed binder)
chain: MAPKKYVVTVTIPVTDADLTVFLVVDIIVYAEKLGGTVTITAVKSENDSYSVTLEDLDKAAEELEKVGGSIVLTVTFDNKEKAEKVAEFAYLKAEEYNLKVDVEVKEEL

Experiments:
LbuCas13a = molecular target: T1, LbuCas13a; assay: fluorescence polarization; no AIcr (control); 40 nM aRNA, RNP titrated; FP: 1x Cas13a cleavage buffer (composition not in the material), RNP twofold dilutions, 40 nM FAM-aRNA, 2 uM AIcrVIA, 2 h at 37 C; conditions: protein: recombinant; tags: 6xHis-MBP, removed with TEV (SNA left at the N-terminus); label: 5'-6-FAM on aRNA; guide:target 24 bp; guide 5' repeat single-stranded/hairpin; target overhangs 5' C and 3' CC
[1] = molecular target: T2, Leptotrichia buccalis (Lbu) …; assay: cell-based or functional assay

| Binder | binding result (LbuCas13a) | IC50 of inhibition of the LbuCas13a HEPN nuclease (velocity of reporter RNA cleavage by LbuCas13a–crRNA–aRNA against AIcrVIA concentration) [1] [nM] |
| --- | --- | --- |
| B1 | binds | – |
| B2 | – | ~7 |
| B3 | – | ~7 |
